# Experimental data from the nanobody polyreactivity screen of Harvey et al. (2022).
# Experiment: yeast display, Sf9 membrane polyspecificity reagent, FACS + sequencing; frameworks hold sequencing errors
# Method in brief: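 Polyreactivity labels are assigned by the sorting gate from which each nanobody was recovered. The gates were low and high (top ~1%), set on anti-HA fluorescence for expression and streptavidin fluorescence for reagent binding. Before sorting, galactose-induced (36–48 hours) yeast display cells were stained for 1 hour at 4 °C with 10% biotinylated, detergent-solubilized Sf9 membrane reagent.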
row,Sequence,polyreactivity (PSR sort gate)
1,QVQLVESGGGLAQAGGSLRLRCAASGRTFPSYAMGWYSQAPGKERELVAAISRSGARTYYADSVKGRFTISRDNAKTTVYLQMNSLKPDDTAVYYCAAVGSTRYEYWGQGSQVTVSS,high polyreactivity
2,QVQLVESGGGLVQAGGSLRLSCAASGRIFVRYVMGWYRQAPGKERELVAAITKSGASTYYADSVKGRFTISRDNAKNTVYLQMNSLKPEDTAVYYCNRDLVDSYGYWGQGTQVTVSS,high polyreactivity
3,QVQLVESGGGLVQAGGSLRLSCAASGRTFYGNVMGWYRQAPGKERELVAAISSRGSRTYYADSVKGRFTISRDNAKNTVYLQMNSLKPEETAVYYCNTYVRNHGLAGPDDYWGQGTLVTVSS,high polyreactivity
4,QVQLVESGGGLVQAGGSLRLSCAASGRIIYTYAMAWYRQAPGKERELVAAISWSGGSTYYADSVKGRFTISRDNAKNTVYLQMNSMKPEDTAVYYCNAAYYGYENLSKRGYWGQGTQVTVSS,high polyreactivity
5,QVQLVESGGGLVQAGGSLRLSCAASGRIFITNTMGWYRQAPGKERELVAAISRTGGSTYYADSVKGRFTISRDNAKNTVYLQMNSLKPEDTAVYYCNADWYGQLWWGVDYWGQGTQVTVSS,high polyreactivity
6,QVQLVESGGGLVQAGGTLRLSCAASGRTIKQNAMGWYRQAPGKERELVATIRNGGNTNYADSVKGRFTISRDNAKNNVYLQMNSLKPEDTAVYYCAAARSPYKYSYWGQGTQVTVSS,high polyreactivity
7,QVQLVESGGGLVQAGGSLRLSCAASGRIFYANAMGWYRQAPGKERELVAAISSGGSTYYADSVKGRFTISRDNANNTVYLQMNSLKPEDTAVYYFAASTVGQTFSYYVDTYDYWGQGTQVTVSS,low polyreactivity
8,QVQLVESGGGLVQAGGSLRLSCAASGRIFERYAMGWYRQAPGKERELVAAISVSGSGTYYADSVKGRFTISRDNAKNTVYLQMNSLKPEDTAVYYCAADASLLGLFQGYDYWGQGTQVTVSS,low polyreactivity
9,QVQLVESGGGLVQAGGSLRLSCAASGRIFHQYAIGWSRPAPGKERELVAAISSGGGSTYYADSVKGRFTISRDNAKNTVYLQMNSLKPEDNAVYYCAAVYDYDRGVNYWGQGTQVTVSS,high polyreactivity
10,QVQLVESGGGLVQAGGSLRLSCAASGSTFQYKAMGWYRQAPGKERELVAAISRRGGSTYYADSVKRRFTISRDNAKNTVYFQMNSLKPADTAVYYCAKEKGYWSGYDYWGQGTQVTVSS,high polyreactivity
11,QVQLVESGGGLFQAGGSLGLSCAASGSTFSKYAMGWSRQAPGKERELVAAISSGGRTNYADSVKGRFTISRDNAKNTVYLHMNSLKPEDTAVYDCAALWGYWAYYYWGQGTQVTVSS,low polyreactivity
12,QVQLVESGGGLVQAGGSLRLSCAASGLTYYYYAKGWYRQAPGKERDFVAAISRSGGTTYYADSVKGRFTISRDNAKNTDYLQMNSLKPEDTAVYYCNAQWWRYRPSQVIFDYWGQGTQVNVSS,high polyreactivity
13,QVQLVESGGGLVQAGGSLRLSCAASGGILWGNGMGWYRQAPGKERELVAAISTGGSTNYADSVKGRFTISRDNAKNTVYLQMNSLKPEETAVYYCAGGAGGVRYSFYWNDYWGQGTQVTVSS,high polyreactivity
14,QVQLVESGGGLVQAGGSLRLSCAASGRTFVLNAMGWYRPAPGKERELVAAITLGGGSTYADSVKGRFTISRDNAKNTVYLQMNSLKPEDTAVYYCAADFHYPAFEYWGQGTQVTVSS,low polyreactivity
15,QVQLVESGGGLVQAGGSLRLSCAASGYILGRYAMGWYRQAPGKERELVAAITSGGSTYYADSVKGRFTISRDNAKNTVYLQMNSLKPEDTAVYYCNAFFATGVDYWGQGTQVTVSS,high polyreactivity
16,QVQLVESGGGLVQAGGSLRLSCAASVSTFANNAMGWYRQAPGKERELVASITTDGSTNYADSVKGRFTISRDNAKNTVYLQMNSLKPEDTAVYYCAADYHTPSSFAPIELYDYWGQGTQVTVSS,low polyreactivity
17,QVQLVESGGGLVQAGGSLRLSCAASGFIFLAYAMGWYRQAPGKERELVAAISSGSSTSYADSVKGRFTISRDNAKNTVYLQMNSLKPEDTAVYYCNAVPSFANLTWESYDYWGQGTQVTVSS,low polyreactivity
